Assay results: the supplement of paper PMC12042874
± gives the uncertainty stated by the source.

Experiment: amyloid nucleation score (Sup35N fusion, yeast selection) (log enrichment); library NNK1; higher = more nucleation; inactive = no reads after selection
Method in brief: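 Output and input plasmid inserts were sequenced by Illumina after psi-negative yeast carrying Sup35N fused to peptides of 20 random codons had been induced 24 hours with 100 μM copper sulfate and grown 7 days at 30°C on medium lacking adenine and uracil. The nucleation score is the DiMSum log enrichment of output over input reads, centred on the mode score of non-aggregating sequences. Sequences with under 100 input reads were excluded.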

SLSFSCSVKV and WMKVLVPFRMEAASGSLFCS are within error of each other in amyloid nucleation score: -0.149 ± 0.54 for the first, -1.22 ± 1.3 for the second.

RLSIFRLYPLLCRRG and GPVRQHCYCDMTTVFRILGA are within error of each other in amyloid nucleation score: 0.163 ± 0.34 for the first, -1.55 ± 1.4 for the second.

LIVRNRHCLGAPFENFFSAR and PYVFPVRYYSTILWYAIYVR are within error of each other in amyloid nucleation score: 0.671 ± 0.37 for the first, 0.558 ± 0.28 for the second.

First: TTPGALSSRTMSMPDVLGIE
Second: TMTVSFPRLEKCTSK
The amyloid nucleation score of the first is higher: 1.37 ± 0.5 for the first, 0.169 ± 0.35 for the second.

Going from VSFNGFLHLFWVFILLNSPW to AMVGLMMELAHRKLNR, the amyloid nucleation score falls from 6.98 ± 0.085 to 0.523 ± 0.45.

First: AVQFCCWDMRTVIAS
Second: NAFSDRLTGCRLRGGMGRTS
The amyloid nucleation score of the first is higher: 5.76 ± 0.066 for the first, -0.526 ± 0.88 for the second.

GLWFVC and SIDGWNSKVKGFEFRMGGT are within error of each other in amyloid nucleation score: 0.374 ± 0.75 for the first, -0.045 ± 0.32 for the second.

First: LIHVRCSLVQCANSELQGAG
Second: VCNFLFAFSFW
The amyloid nucleation score of the first is lower: 2.65 ± 0.28 for the first, 6.746 ± 0.064 for the second.

Compared with VAFVLLTQVGGWRLGIWRRK, DIFHSLILHMDMYEG is higher in amyloid nucleation score: -1.09 ± 0.66 for the first, 0.811 ± 0.85 for the second.

VRCTFLVKVDWTFYKASRPR and GFWQLFLRVIPLFSVGYSNC are within error of each other in amyloid nucleation score: 0.087 ± 0.47 for the first, 0.875 ± 0.69 for the second.

RWQAFGTELYGTSWSFREYG and AHFIFCKTFTLCLLLFCKLT are within error of each other in amyloid nucleation score: 0.148 ± 0.47 for the first, 0.057 ± 0.83 for the second.

First: TNILLLHFSDHEFGLEFRYL
Second: CLKWTVNIDGFIPDARLPRS
The amyloid nucleation score of the first is lower: 1.68 ± 0.17 for the first, 3.18 ± 0.18 for the second.

Going from SSISV to ISMTDYVPSMHYAQTRVHLN, the amyloid nucleation score falls from 2.35 ± 0.53 to -0.085 ± 0.78.

GGYGERRDVVVDRSYTVDTG and QYGWCIAYSLELCSLSPNLI are within error of each other in amyloid nucleation score: 0.071 ± 0.62 for the first, 0.326 ± 0.37 for the second.

First: SPPMSKLVMATRVLKCMDPS
Second: YTFQIILNSVPWYFCAMLWE
The amyloid nucleation score of the first is lower: 0.086 ± 0.79 for the first, 5.54 ± 0.1 for the second.

Compared with SDFTIINFQYFLASCCTGYV, GMSPPSNSFFSFCFTGLVKF is lower in amyloid nucleation score: 7.602 ± 0.048 for the first, 0.319 ± 0.61 for the second.

IRFKRFGADAHGNKYNSRWI and VKDASFRFAQQEGMRLRMQS are within error of each other in amyloid nucleation score: 1.13 ± 0.32 for the first, 0.503 ± 0.38 for the second.

First: CSNDLECFCDFNCRL
Second: GGMIAIKHKFIYYDLELWGY
The amyloid nucleation score of the first is higher: -0.033 ± 0.39 for the first, -0.94 ± 0.43 for the second.

First: MIVYNMFGMNYYLFILDG
Second: MPAWFILGDVVL
The amyloid nucleation score of the first is higher: 7.508 ± 0.048 for the first, 1.2 ± 0.35 for the second.

FYGCFRVHCVISMLGWR and FNDLYLGAYSRREDTNYVRL are within error of each other in amyloid nucleation score: 0.109 ± 0.36 for the first, 0.198 ± 0.56 for the second.

IPMLFMSLRV and HSKGYMARHDRAYGDSERVV are within error of each other in amyloid nucleation score: 0.171 ± 0.26 for the first, 0.303 ± 0.77 for the second.

FMTFVYTGTSFSR and ESMLSSIRGLHNG are within error of each other in amyloid nucleation score: 0.523 ± 0.71 for the first, -0.851 ± 1.7 for the second.

FLLREQQGLTEVMKEV and GVKQEHVIPWQEVLGVITL are within error of each other in amyloid nucleation score: 0.481 ± 0.52 for the first, 1.01 ± 0.84 for the second.

KPERICLWLVVKRYSMVHLW and HNQDSCIFGQYSDNEVNASV are within error of each other in amyloid nucleation score: 0.253 ± 0.51 for the first, -1.47 ± 1.6 for the second.

SIDFV and LYNSGSTLI are within error of each other in amyloid nucleation score: 0.989 ± 0.88 for the first, 0.342 ± 0.61 for the second.

PFEYLVRLIYCEDVAYLGTG and WFGTHCVLSYVSTFWSLQSV are within error of each other in amyloid nucleation score: -0.148 ± 0.62 for the first, -0.275 ± 0.24 for the second.

SSSRNLVSSRCLQVYLPMHA and FIRFLNTVGSWSLWMPYMVF are within error of each other in amyloid nucleation score: 0.986 ± 0.71 for the first, 0.851 ± 0.42 for the second.

YRLRGGP and RPLVRQPGEDYIFGLSSMCL are within error of each other in amyloid nucleation score: -0.25 ± 1.2 for the first, -0.203 ± 0.49 for the second.

SQVLGSLLFRSPRVWICVAG and SFKWLGTFRYSYTKSTEHVW are within error of each other in amyloid nucleation score: -0.969 ± 2.1 for the first, -0.534 ± 1.2 for the second.

NWNVGTQTKHVDNFLHKVIN and ELRCLQVINGLASLSASVWW are within error of each other in amyloid nucleation score: -0.315 ± 0.74 for the first, 0.067 ± 0.64 for the second.

VLMRSEMESRFNEGRSTQGC and SGGWTSLDGDMSCSSVTYLV are within error of each other in amyloid nucleation score: 0.361 ± 0.3 for the first, -0.703 ± 0.84 for the second.

GNYVVVVGYN and LLSFGTFTGPKRVYLSLSMV are within error of each other in amyloid nucleation score: 0.326 ± 0.5 for the first, 0.059 ± 0.86 for the second.

KIRSPYNMMPMLTLGTSKGV and RLTFKYIKFAMS are within error of each other in amyloid nucleation score: 0.845 ± 0.61 for the first, 0.206 ± 0.36 for the second.

SLYCNGVRMPLAETSGNEHL and SSFSVVFDSHVSS are within error of each other in amyloid nucleation score: -0.091 ± 0.43 for the first, 0.382 ± 1.4 for the second.

SRKKKIVITEPNHSSRHQSV and LFGLYFICSLKAISSYTERL are within error of each other in amyloid nucleation score: 0.003 ± 0.86 for the first, 0.456 ± 0.23 for the second.

YSWTVAKIFTYFSVQLSIFR and FECCAVLLYMGRVNACRVCC are within error of each other in amyloid nucleation score: -0.396 ± 0.33 for the first, -0.281 ± 0.44 for the second.

Going from SSYVPSCCYWAVWFCVRGKY to DFTCIRMNQSFVIRAFGALC, the amyloid nucleation score rises from 1.58 ± 0.46 to 3.75 ± 0.16.

First: LETINSSGRHF
Second: RWDYDWNQVSCNDSRIGKLT
The amyloid nucleation score of the first is higher: 2.74 ± 0.091 for the first, 0.565 ± 0.61 for the second.

IRHIRPFFNVKDI and MISMFSLFLIRMIM are within error of each other in amyloid nucleation score: -0.006 ± 0.37 for the first, -0.052 ± 0.54 for the second.

Compared with ERAQYMSRTVRRVSFKSFFC, FRGYHSSMSGNGDDNEKFGG is lower in amyloid nucleation score: 3.55 ± 0.13 for the first, 0.24 ± 0.71 for the second.

YTMFLPFRLR and NMDRVSFLR are within error of each other in amyloid nucleation score: 0.376 ± 0.8 for the first, -0.062 ± 0.6 for the second.

IKYVQIGRRRLKWGGERRPL and IVRVEWFSHYSFVFNGIDGG are within error of each other in amyloid nucleation score: 0.311 ± 0.37 for the first, 0.679 ± 0.54 for the second.

In the case of ILCFFRECLLDWVSLGRFIV, the amyloid nucleation score is reported as “inactive”.
With FVTNTWRVTVCPSQLFGILR the amyloid nucleation score was “inactive”.
